Measured values: US20190367627A1 (AGENUS, published 2019)
Residue numbers refer to the chain shown, from its start. In names and notes the source's numbering stands. Blank lines part the entries; values can stand above or below the binder they belong to.

Molecular target: T1, human OX40 (human, UniProt P43489 29-277)
T1 construct: Recombinantly expressed on transduced Jurkat cells; also called OX40 receptor; huOX40
T1 sequence: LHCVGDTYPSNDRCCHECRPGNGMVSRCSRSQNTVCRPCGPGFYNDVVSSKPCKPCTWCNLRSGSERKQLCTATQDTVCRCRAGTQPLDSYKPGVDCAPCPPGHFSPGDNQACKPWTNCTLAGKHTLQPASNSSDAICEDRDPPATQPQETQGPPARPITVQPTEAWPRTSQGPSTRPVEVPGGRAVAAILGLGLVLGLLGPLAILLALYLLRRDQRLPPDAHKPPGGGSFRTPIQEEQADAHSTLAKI
Experiment: flow cytometry on Jurkat cells expressing human OX40
Description: FIGS. 1A, 1B, 1C, 1D, 1E, IF, 1G, 1H, 1I, and 1J are a set of flow cytometry plots showing the binding of anti-OX40 antibodies or an isotype control antibody to Jurkat cells expressing human OX40. The anti-OX40 antibodies tested include pab1949, pab2049, heavy chain variants of pab1949 (pab1949 N56Y, pab1949 Y103A, pab1949 D104A, pab1949 Y108A, and pab1949 D109A), and light chain variants of pab1949 (pab1949 A96G/L97S, pab1949 Q98K, and pab1949 T99W). All the anti-OX40 antibodies tested are IgG₁ antibodies. MFI values are plotted over a range of antibody concentrations.
The binding characteristics of the anti-OX40 antibodies to cells expressing human OX40 were analyzed by flow cytometry. Briefly, Jurkat cells were transduced to recombinantly express human OX40. Stable clones were generated via single-cell sorting (FACS ARIA Fusion). OX40 expression was verified by flow cytometry using positive control antibodies. For binding analysis, OX40-expressing Jurkat cells were incubated with anti-OX40 antibodies (12-point dose titration, 10 μg/ml to 0.00005 μg/ml) for 30 minutes at 4° C. The samples were washed twice and then incubated with FITC-conjugated mouse anti-human kappa detection antibody (Life Technologies, Catalog number: HP6062) for 30 minutes at 4° C. The samples were then washed twice and analyzed using the LSRFortessa flow cytometer (BD Biosciences). The flow cytometry plots were analyzed using a combination of FACS DIVA and WEHI Weasel software.

B2: pab1949 N56Y (antibody, IgG1, V domains shown)
VH: EVQLVESGGGLVQPGGSLKLSCAASGFTFSGSAMHWVRQASGKGLEWVGRIRSKAYSYATAYAASVKGRFTISRDDSKNTAYLQMNSLKTEDTAVYYCTSGIYDSSGYDYWGQGTLVTVSS
VL: not shown
binding result: binds

B3: pab2049 (antibody, human IgG1, V domains shown)
VH: B2 VH with Y56N
VL: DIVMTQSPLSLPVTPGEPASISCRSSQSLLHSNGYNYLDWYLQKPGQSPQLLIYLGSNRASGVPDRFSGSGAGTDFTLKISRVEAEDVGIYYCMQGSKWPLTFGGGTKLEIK
notes: its constant region is not tied to this antibody; also called pab2049 (IgG1)
binding result: binds

B5: pab1949 D104A (antibody, IgG1, V domains shown)
VH: B2 VH with Y56N, D104A
VL: not shown
binding result: binds

B6: pab1949 Y103A (antibody, IgG1, V domains shown)
VH: B2 VH with Y56N, Y103A
VL: not shown
binding result: binds

B7: pab1949 Q98K (antibody, V domains shown)
VH: B2 VH with Y56N
VL: not shown
notes: Only variable domains are tied to this antibody
binding result: binds

B9: pab1949 T99W (antibody, V domains shown)
VH: B2 VH with Y56N
VL: not shown
notes: as for B7
binding result: binds

Second part, the binder after the results:

binding result: binds
B1: pab1949 (antibody, human IgG1, kappa, V domains shown)
VH: B2 VH with Y56N
VL: not shown
notes: also called pab1949 (IgG1)

binding result: binds
B4: pab1949 Y108A (antibody, IgG1, V domains shown)
VH: B2 VH with Y56N, Y108A
VL: not shown

binding result: binds
B8: pab1949 A96G/L97S (antibody, IgG1, V domains shown)
VH: B2 VH with Y56N
VL: not shown
notes: as for B7

binding result: binds
B10: pab1949 D109A (antibody, IgG1, V domains shown)
VH: B2 VH with Y56N, D109A
VL: not shown
